Results: patent US20200237885A1, “VACCINES FOR TREATMENT AND PREVENTION OF CANCER” (Agenus Inc., priority 2015, published 2020)
Where no end group is shown, it is not given here. [ ]: non-standard residue; d: D form. pS = N[C@@H](COP(=O)(O)O)C(=O)O

Legend:
[1] = target: T1, recombinant human Hsc70 (Homo sapiens, UniProt P11142); experiment: Hsc70-peptide complex formation by size exclusion chromatography (SEC); type: binding; settings: for Percentage of Hsc70 loaded with peptide: peptide:Hsc70 4:1 molar excess, PBS 37° C. 1 hour
T1 construct: purchased Biomay AG
Source text: Hsc70-peptide complex formation was examined in vitro using size exclusion chromatography (SEC). Hsc70 resolves in two main peaks on a size exclusion column, with one peak corresponding to its monomeric form and the other peak to an oligomeric form (FIG. 14). Hsc70 undergoes a conformational change upon binding peptide (Zhuravleva and Gierasch, P.N.A.S. 112[22]:E2865-73 [2015]), resulting in the appearance of a new peak on the SEC chromatogram that corresponds to the peptide-bound form (FIG. 15). By measuring the surface area of each of the peaks corresponding to the forms of Hsc70 on a chromatogram, the percentage of Hsc70 complexed with a peptide can be determined. The effect of the molar ratio of Hsc70 to peptide on Hsc70-peptide complex formation was determined by combining Hsc70 and a test peptide at Hsc70/peptide molar ratios of 1:4, 1:10, 1:20, and 1:50, and then resolving the resulting mixtures by SEC to determine the extent of complex formation. The peptide used in these experiments was the immunogenic peptide B16-M27 (“M27”), containing a B16-F10 melanoma-specific mutation, as described in Kreiter et al., Nature 520(7549):692-6 (2015) (also described in Examples 9-11). The effect on complex formation of appending a high affinity Hsc70-binding peptide sequence to a chicken ovalbumin peptide having the amino acid sequence SIINFEKL (SEQ ID NO:448), that is highly immunogenic in mice (Zehn et al, Nature 458:211-214 [12 Mar., 2009]) was also tested. The high affinity Hsc70 binding sequence, NLLRLTG (SEQ ID NO:439) was appended to either the C- or N-terminus of the ovalbumin peptide, and was linked to the ovalbumin peptide by a linker having the sequence FFRK (SEQ ID NO:447), as disclosed in U.S. Pat. No. 7,309,491.
Standard size exclusion chromatography was carried out using 7 μM of recombinant human Hsc70 (Genbank Accession No. P11142.1) (Biomay AG) in a reaction buffer containing 20 mM HEPES and 200 mM KCL in a final volume of 50 μl. Reactions were incubated at 37° C. for 1 or 2 hours and centrifuged 2 min at 13000 RPM. Reaction products (10 μg) were resolved on a TSKgel SuperSW3000, 4 μm particle size, 25 nm pore size gel filtration chromatography column (Tosoh Bioscience). For reactions containing peptide, peptide was included in the reaction mixtures at Hsc70:peptide molar ratios of 1:4, 1:10, 1:20, and 1:50. The percentage of Hsc70 complexed with peptide in each reaction mixture was calculated by measuring the surface area of the appropriate peak.
The peptides listed above were individually incubated with Hsc70 in PBS at 37° C. for 1 hour to form non-covalent Hsc70-peptide complexes. For M27 and M30, the peptides were added to Hsc70 at a 20:1 molar excess (peptide:Hsc70) while for M27-Jav and M30-Jav, the peptides were added at a 4:1 molar excess. After incubation, the mixtures were diluted 10 times in PBS at 4° C. and concentrated using a 30 kDa MW cut off Millipore® Amicon® centrifugal filter to separate Hsc70-peptide complexes from free, uncomplexed peptide. The retained complexes 5 Hsc70-M27 and Hsc70-M30 were pooled and subsequently analyzed by size exclusion chromatography (SEC) to quantify the proportion of Hsc70 molecules loaded with peptide. […] The same pooling, filtration and SEC analysis steps were followed for the Hsc70-M27-Jay and Hsc70-M30-Jav complexes with the observation that 73% of the Hsc70 molecules were loaded with the peptides.
Four peptides (Table 9) containing a phosphorylated serine residue were synthesized to 95% purity (GenScript, Cambridge, Mass.). The peptides comprise HLA-A*02:01 binding epitopes of the CDC25 or IRS-2 antigen modified at either their C-termini or N-termini with the addition of a linker sequence FFRK (SEQ ID NO:447) and a high affinity HSP binding peptide sequence NLLRLTG (SEQ ID NO: 439). These peptides were individually incubated with Hsc70 in PBS at 37° C. for 1 hour at a 4:1 molar excess (peptide:Hsc70) to form non-covalent Hsc70-peptide complexes. […]

[2] = target: T1, recombinant human Hsc70; experiment: as above; type: binding
[3] = Hsc70:peptide molar ratio 1:10, 37° C.

T1 sequence (P11142 whole entry): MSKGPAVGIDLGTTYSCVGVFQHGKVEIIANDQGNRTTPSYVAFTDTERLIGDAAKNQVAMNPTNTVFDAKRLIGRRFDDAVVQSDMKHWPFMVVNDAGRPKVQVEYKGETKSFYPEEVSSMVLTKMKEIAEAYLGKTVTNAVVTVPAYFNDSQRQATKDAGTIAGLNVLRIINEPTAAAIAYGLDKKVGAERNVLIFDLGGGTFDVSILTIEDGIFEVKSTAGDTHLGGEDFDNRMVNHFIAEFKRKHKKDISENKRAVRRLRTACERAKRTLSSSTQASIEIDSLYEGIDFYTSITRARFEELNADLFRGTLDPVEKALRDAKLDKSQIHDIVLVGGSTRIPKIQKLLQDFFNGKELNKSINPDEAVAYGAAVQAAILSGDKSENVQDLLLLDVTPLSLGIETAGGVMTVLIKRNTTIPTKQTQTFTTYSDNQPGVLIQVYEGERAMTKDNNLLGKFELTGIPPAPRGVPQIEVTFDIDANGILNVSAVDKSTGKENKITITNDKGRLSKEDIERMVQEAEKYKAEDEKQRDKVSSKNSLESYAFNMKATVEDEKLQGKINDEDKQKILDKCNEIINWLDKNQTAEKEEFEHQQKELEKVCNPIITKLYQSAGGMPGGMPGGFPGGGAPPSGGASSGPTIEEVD

Substance | Percentage of Hsc70 loaded with peptide [1] [%] | percentage of Hsc70 complexed with peptide [1, 3] | other results
NLLRLTGFFRKGLLG{pSer}PVRA (NLLRLTGFFRKGLLG[pS]PVRA) [SEQ ID NO 473] | 41 |  | 
SIINFEKLFFRKNLLRLTG [SEQ ID NO:449, reference compound] |  | over 90% | extent of complex formation, NLLRLTG at C-terminus compared to N-terminus ([2]; Hsc70:peptide molar ratio 1:2, same result at 1:5): significantly greater
GLLG{pSer}PVRAFFRKNLLRLTG (GLLG[pS]PVRAFFRKNLLRLTG) [SEQ ID NO 474] | 74 |  | 
NLLRLTGFFRKRVA{pSer}PTSGV (NLLRLTGFFRKRVA[pS]PTSGV) [SEQ ID NO 475] | 34 |  | 
REGVELCPGNKYEMRRHGTTHSLVIHD (M27) |  | approximately 40% | percentage of Hsc70 bound to peptide ([1]; Hsc70:peptide molar ratio 1:4, 37° C.): 20%; percentage of Hsc70 complexed with peptide ([1]; Hsc70:peptide molar ratio 1:20, 37° C.): approximately 50%; percentage of Hsc70 complexed with peptide ([1]; Hsc70:peptide molar ratio 1:50, 37° C.): approximately 65%; change in extent of complex formation with incubation time ([2]; incubation time increased from 2 to 3 hours at 37° C.): only a minor increase
RVA{pSer}PTSGVFFRKNLLRLTG (RVA[pS]PTSGVFFRKNLLRLTG) [SEQ ID NO 476] | 75 |  | 
